Patent US20110045003A1 (SYNOVEX, published 2011)

T1: recombinant his-tagged human Cad-11 (R&D Systems) (human, UniProt P55287 54-617)
T1 construct: also called rhCad-11; recombinant human Cad-11; not shown: his tag
T1 sequence: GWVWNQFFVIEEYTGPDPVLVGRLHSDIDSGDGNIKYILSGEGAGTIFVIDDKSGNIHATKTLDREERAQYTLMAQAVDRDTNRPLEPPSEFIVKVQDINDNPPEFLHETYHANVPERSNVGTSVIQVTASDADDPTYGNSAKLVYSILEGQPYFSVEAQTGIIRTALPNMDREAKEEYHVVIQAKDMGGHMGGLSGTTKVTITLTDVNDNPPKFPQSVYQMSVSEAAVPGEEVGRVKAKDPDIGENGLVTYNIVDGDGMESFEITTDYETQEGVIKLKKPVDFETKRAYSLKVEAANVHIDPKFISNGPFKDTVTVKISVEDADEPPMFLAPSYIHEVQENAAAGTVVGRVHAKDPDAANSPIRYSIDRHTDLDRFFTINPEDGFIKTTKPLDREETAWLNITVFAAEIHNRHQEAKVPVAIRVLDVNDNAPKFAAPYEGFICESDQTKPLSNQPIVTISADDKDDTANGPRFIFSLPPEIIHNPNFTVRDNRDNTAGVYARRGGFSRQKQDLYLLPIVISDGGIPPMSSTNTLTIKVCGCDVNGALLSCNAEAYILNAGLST

T2: BSA coupled 37-mer Cad-11 peptide encompassing the Cad-11 immunogen (UniProt P55287 54-90, limits assumed, linked to BSA)
T2 construct: domain: 37-mer peptide encompassing the Cad-11 immunogen; also called Cad-11 antigen; Cad-11 peptide immunogen
T2 peptide (looked up): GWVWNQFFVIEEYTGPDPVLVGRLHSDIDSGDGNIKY

T3: recombinant Cad-11 EC1 human IgG1 fusion protein (R&D Systems Cat. No. 1790-CA-050) (human, UniProt P55287 54-617, limits assumed)
T3 construct: Bought protein; the catalogue product may hold more of the extracellular region; also called recombinant human Cad-11 EC1; recombinant human Cad-11 fusion protein; not shown: human IgG1 part of the bought fusion protein
T3 sequence: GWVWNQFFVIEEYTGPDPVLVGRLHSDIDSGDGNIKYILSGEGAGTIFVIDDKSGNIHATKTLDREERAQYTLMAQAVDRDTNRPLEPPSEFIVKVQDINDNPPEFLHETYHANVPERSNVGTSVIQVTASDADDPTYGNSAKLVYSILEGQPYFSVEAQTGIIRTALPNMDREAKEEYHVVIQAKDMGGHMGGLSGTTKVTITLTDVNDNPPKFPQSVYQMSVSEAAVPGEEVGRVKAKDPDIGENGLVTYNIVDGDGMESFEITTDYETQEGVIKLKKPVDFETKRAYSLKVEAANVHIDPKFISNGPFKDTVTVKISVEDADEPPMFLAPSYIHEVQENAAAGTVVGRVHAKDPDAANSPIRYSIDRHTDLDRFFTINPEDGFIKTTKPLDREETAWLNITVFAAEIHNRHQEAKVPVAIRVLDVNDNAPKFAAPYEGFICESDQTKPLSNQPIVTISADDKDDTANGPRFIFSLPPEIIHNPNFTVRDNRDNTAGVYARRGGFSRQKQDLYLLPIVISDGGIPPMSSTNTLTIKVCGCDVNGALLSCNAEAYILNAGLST

T4: Peptide 4 (first 33 amino acids, G1-G33, of the human Cad-11 EC1 domain) (human)
T4 construct: also called PEP4; Peptide 4 immunogen
T4 peptide: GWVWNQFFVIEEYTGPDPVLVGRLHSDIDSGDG


Assays:
[1] = target: T1, recombinant his-tagged human Cad-11 …; assay: SPR, rhCad-11 immobilized, SDP051 as analyte, 2 state reaction model (kd1)
Experimental: (§1) To determine the affinity of SDP051 for recombinant his-tagged human Cad-11, rhCad-11 (R&D Systems) was immobilized to the chip at a single concentration, high resolution kinetics were determined for SDP051, and a 2-state reaction binding model was successfully fitted to the kinetic data.
(§2) Kinetic data were obtained at a flow rate of 40 μL/min to minimize any potential mass transfer effects. An analyte concentration series ranging from 12.5 nM to 0.195 nM was prepared by serial dilution. Two repeats of the blank (no mAb) and the 3.125 nM (first and last cycle) concentration of the analyte were programmed into the kinetic runs in order to check the stability of both the surface and analyte over the kinetic cycles. The SDP051 was injected over the Fcs for 360 seconds, long enough to observe the curvature in association phase.
(§3) As rhCad-11 is homodimeric and therefore contained two identical binding epitopes, it is likely that individual mAb molecules become bound sequentially through a first binding site and then both binding sites.

[2] = target: T2, BSA coupled 37-mer Cad-11 peptide …; assay: ELISA on BSA coupled 37-mer peptide, coat 50 ng/ml; Cad-11 antigen, coat 50 ng/ml
[3] = target: T3, recombinant Cad-11 EC1 human IgG1 …; assay: competition ELISA on coated recombinant human Cad-11 EC1 fusion protein; competitor biotinylated SYN0012 at 0.1 µg/ml, streptavidin-HRP, OD450
Experimental: (§4) The binding of the purified humanized composite variant antibodies (SDP011 to SDP151) to a recombinant Cad-11 EC1 human IgG1 fusion protein was assessed in a competition binding ELISA. A dilution series from 5 μg/ml to 0.0022 μg/ml of the humanized or control (SYN0012/H1M1) antibodies was premixed with a constant concentration of biotinylated murine anti-Cad-11 antibody, SYN0012/H1M1 (0.1 μg/ml, final concentration), before incubating for 1 hour at room temperature on a Nunc Immuno MaxiSorp 96 well flat bottom microtitre plate (Fisher Cat. No. DIS-971-030J) pre-coated with 0.25 μg/ml recombinant human Cad-11 EC1 (R&D Systems Cat. No. 1790-CA-050) diluted in PBS. The binding of the biotinylated mAb was detected with streptavidin-HRP (Sigma Cat. No. 55512) and tetramethylbenzidine (TMB) substrate (Invitrogen Cat. No. 00-2023).

[4] = target: T3, recombinant Cad-11 EC1 human IgG1 …; assay: competition ELISA on coated recombinant human Cad-11 EC1 fusion; competitor biotinylated SYN0012/H1M1 at 0.1 µg/ml
Experimental: as §4
The relative IC50 was calculated by dividing the value for the test antibody by that of SYN0012. Antibody expression levels given are for static cultures in T flasks. PI are calculated.

[5] = target: T1, recombinant his-tagged human Cad-11 …; assay: SPR, rhCad-11 immobilized, SDP051 as analyte, 2 state reaction model (ka1)
Experimental: as §1, §2, §3

[6] = target: T4, Peptide 4 (first 33 amino acids, …); assay: ELISA on biotinylated EC1 peptides
Experimental: The specificity of H1M1 and H14 anti-Cad-11 antibodies was tested further using an ELISA against the first 33 amino acids of the EC1 domains of Cad-11, Cad-7, Cad-8, Cad-20, Cad-24, Cad-9, Cad-18, and MN-Cad. Peptides corresponding to the region of Cad-7, Cad-8, Cad-20, Cad-24, Cad-9, Cad-18, MN-Cad that overlapped with the G1-G33 region of the Cad-11 EC1 domain were synthesized and conjugated to biotin. 100 μl of a 30 ng/ml solution of each of these peptides in PBS-Tween (0.05%) were incubated in each well of a 96-well Netravidin plate for 2-3 hrs at 4° C. and then washed twice with PBS-Tween (0.05%). Various concentrations of the anti-Cad-11 antibody were incubated in each well for 1 hr at 22° C. and then washed twice with PBS-Tween (0.05%). 100 μl of a 1/1000 dilution of a goat anti-mouse IgG secondary antibody were added to each well, incubated for 30 min at 22° C., and then washed twice with PBS-Tween (0.05%). 100 μl/well of room temperature TMB (3,3′,5,5′-tetramethylbenzidine) reagent was added to each well and color was allowed to develop for 5 min at 22° C.

| Binder | koff [1] | EC50 [2] | IC50 (read off the curve) [3] | relative IC50 (IC50 of the test antibody divided by that of SYN0012) [4] | kon [5] | fold higher binding to Cad-11 than to any of the other cadherins tested [6] |
| --- | --- | --- | --- | --- | --- | --- |
| humanized anti-Cad-11 EC1 antibody SDP051 (Vκ1/VH5) (antibody, IgG4, V domains shown, humanized IgG4 (S241P), kappa) VH: EVQLVQSGAEVKKPGASVKVSCKASGYSFTGYFMNWVRQAPGQGLEWIGRINPYTGDTFYNQKFKGRVTITVDKSTSTAYMELSSLRSEDTAVYYCGRLGSRYWYFDVWGQGTTVTVSS VL: DVLMTQTPLSSPVTLGQPASISCRSSQSIIHSNGNTYLEWYLQKPGQSPQLLIYKVSNRFSGVPDRFTGSGSGTDFTLKISRVEAEDVGVYYCFQGSHVPWTFGQGTKLEIK | 0.0043 s⁻¹ | 0.0068 µg/mL | ~0.2 µg/mL | 0.99 ratio (column head prints µg/mL) | 613000 M⁻¹ s⁻¹ |  |
| murine H1M1 monoclonal anti-Cad-11 EC1 antibody (hybridoma H1M1, ATCC PTA-9699) (antibody, V domains shown, Biotinylated when used as the labelled competitor in Example 14; the letters are unchanged., murine antibody raised against Peptide 4; also called SYN0012; SYN0012/H1M1) VH: EVQLQQSGPELVKPGASVKISCKASGYSFTGYFMNWVKQSHGKSLEWIGRINPYTGDTFYNQKFKGKATLTVDKSSSTAHMELLSLSSEDSAVYYCGRLGSRYWYFDVWGAGTTVTVSS VL: DVLMTQTPLSLPVSLGDQASISCRSSQSIIHSNGNTYLEWYLQKPGQSPKLLIYKVSNRFSGVPDRFTGSGSGTDFTLKISRVEAEDLGVYYCFQGSHVPWTFGGGTKLEIK |  |  | ~0.2 µg/mL |  |  | > 100 fold |
